Values belong to the binder of their own block, whether it stands above or below them.
Biological target: Bacillus subtilis GapA (glyceraldehyde-3-phosphate dehydrogenase), His-tagged (Bacillus subtilis) (UniProt P09124)
UniProt P09124, sequence (P09124 whole entry): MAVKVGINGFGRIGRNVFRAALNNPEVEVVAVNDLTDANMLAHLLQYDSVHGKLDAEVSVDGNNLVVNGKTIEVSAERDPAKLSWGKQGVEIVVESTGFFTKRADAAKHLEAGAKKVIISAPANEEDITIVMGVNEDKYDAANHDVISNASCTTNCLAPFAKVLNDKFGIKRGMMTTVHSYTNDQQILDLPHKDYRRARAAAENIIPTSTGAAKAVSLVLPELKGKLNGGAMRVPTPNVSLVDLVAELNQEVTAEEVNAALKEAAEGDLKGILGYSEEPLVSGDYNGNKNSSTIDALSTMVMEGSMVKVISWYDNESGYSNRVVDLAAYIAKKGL

catalytic efficiency kcat/KM of GapA with E4P in the presence of HPr-G54D (GAPDH alone: 1.05): 730 M⁻¹ s⁻¹ | catalytic efficiency kcat/KM of GapA with G3P in the presence of HPr-G54D (GAPDH alone: 219): 68500 M⁻¹ s⁻¹
B1: Bacillus subtilis HPr-G54D, His-tagged (natural protein)
chain: MAQKTFKVTADSGIHARPATVLVQTASKYDADVNLEYNGKTVNLKSIMGVMSLDIAKGAEITISASGADENDALNALEETMKSEGLGE

catalytic efficiency kcat/KM of GapA with E4P in the presence of HPr-G54D, S46E (GAPDH alone: 1.05): 3780 M⁻¹ s⁻¹ | catalytic efficiency kcat/KM of GapA with G3P in the presence of HPr-G54D, S46E (GAPDH alone: 219): 164000 M⁻¹ s⁻¹
B2: Bacillus subtilis HPr-S46E, G54D, His-tagged (natural protein)
chain: MAQKTFKVTADSGIHARPATVLVQTASKYDADVNLEYNGKTVNLKEIMGVMSLDIAKGAEITISASGADENDALNALEETMKSEGLGE

catalytic efficiency kcat/KM of GapA with E4P in the presence of HPr-S46E (GAPDH alone: 1.05): 2600 M⁻¹ s⁻¹ | catalytic efficiency kcat/KM of GapA with G3P in the presence of HPr-S46E (GAPDH alone: 219): 38800 M⁻¹ s⁻¹
B3: Bacillus subtilis HPr-S46E, His-tagged (natural protein)
chain: MAQKTFKVTADSGIHARPATVLVQTASKYDADVNLEYNGKTVNLKEIMGVMSLGIAKGAEITISASGADENDALNALEETMKSEGLGE

catalytic efficiency kcat/KM of GapA with E4P in the presence of HPr (GAPDH alone: 1.05): 1880 M⁻¹ s⁻¹ | catalytic efficiency kcat/KM of GapA with G3P in the presence of HPr (GAPDH alone: 219): 57400 M⁻¹ s⁻¹
B4: Bacillus subtilis histidine-containing phosphocarrier protein (HPr), His-tagged (natural protein)
chain: MAQKTFKVTADSGIHARPATVLVQTASKYDADVNLEYNGKTVNLKSIMGVMSLGIAKGAEITISASGADENDALNALEETMKSEGLGE
